This experiment concerns the target C-propeptide of collagen III. In words: SPR; C-propeptide III immobilised by amine coupling on CM5; 10 mM HEPES pH 7.4, 0.15 M NaCl, 5 mM CaCl2, 0.05% P20, 25 °C.

This is an account of results in paper PMC10696041.

B1: procollagen C-proteinase enhancer-2 with N-terminal 6His-tag (natural protein)
chain: QSPERPVFTCGGILTGESGFIGSEGFPGVYPPNSKCTWKITVPEGKVVVLNFRFIDLESDNLCRYDFVDVYNGHANGQRIGRFCGTFRPGALVSSGNKMMVQMISDANTAGNGFMAMFSAAEPNERGDQYCGGLLDRPSGSFKTPNWPDRDYPAGVTCVWHIVAPKNQLIELKFEKFDVERDNYCRYDYVAVFNGGEVNDARRIGKYCGDSPPAPIVSERNELLIQFLSDLSLTADGFIGHYIFRPKKLPTTTEQPVTTTFPVTTGLKPTVALCQQKCRRTGTLEGNYCSSDFVLAGTVITTITRDGSLHATVSIINIYKEGNLAIQQAGKNMSARLTVVCKQCPLLRRGLNYIIMGQVGEDGRGKIMPNSFIMMFKTKNQKLLDALKNKQC
As for B1, the Kd (usually the equilibrium constant for the complex coming apart) was found to be 45 nM.
